Laboratory results taken from the supplement of paper PMC12764529.
± gives the half width of the 95% confidence interval.

Experiment: folding stability dG unfold from trypsin proteolysis; higher = more stable
Procedure, shortened: (§1)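 Mini-proteins designed to be under 80 residues and free of cysteine were carried in a PA-tagged cDNA display construct and digested with trypsin and with chymotrypsin. Each protease was applied at 11 threefold-diluted concentrations, alongside a no-protease condition, before sequencing. K50 came from Bayesian fitting of the sequencing counts, and unfolding free energy was obtained by comparing it with a sequence-predicted unfolded-state K50 and a shared folded-state K50, for each protease separately or for both together. Designs were retained only if their AlphaFold2 dimer inter-PAE exceeded 15.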

Q: For “SAMVIIRVENKDGKTIEIAIPVRNEDGKLTKEELEELAKRLAEELAEELGLEDVKVEVEVRPLSEEELKSAG [r14_378_TrROS_Hall]”, which “folding stability dG unfold” value is on record?
A: Its value is 1.64 ± 0.091 kcal/mol.

Q: With “SAGGSKELKPGDIITFPKSVSEEEIKEKVKELMEKYGIKGIISIEKKSPNSYIVKIEYPDGNPLAISAGGSA [r2_168_JUSTAS]” as the sequence, how does the “folding stability dG unfold” value read?
A: The value was 2.1 ± 0.074 kcal/mol.

Q: With “SAGGSAGGSAGKPNIKKEANLEIFVTEDELEKALEIVKKLEEEGIEVKEAKIYVLKPEEGSAGGSAGGSAGG [r11_533_TrMRF]” as the sequence, how does the “folding stability dG unfold” value read?
A: The value was -0.858 ± 0.23 kcal/mol.

Q: For “SAGMLSVEQLLEALKEGKEILIVAESPEERERAKRLLAEELGLSEEEIDALLKKAKIKVLPADDPELKKSAG [r5_368_TrROS_Hall]”, which “folding stability dG unfold” value is on record?
A: The value was 1.35 ± 0.086 kcal/mol.

Q: With “SAPPLPPETITLTLTIDGYEITVTLTRLPDGTVKLTVTVTLPDGTTVTITMYFDAKTNKWYITKIEITPPSA [r9_795_TrROS_Hall]” as the sequence, how does the “folding stability dG unfold” value read?
A: The value was 4.04 ± 0.48 kcal/mol.

Q: For “SAGGSAKVKIYLIKLPPNGNPLEVIKKVKEKGGNAIIVSGPGLHAVIEADEPEEAAKKAKEILEKLSAGGSA [r15_546_TrMRF]”, which “folding stability dG unfold” value is on record?
A: The value was 0.361 ± 0.1 kcal/mol.

Q: For “SAGPAPGAPWEKVEIVAEAWVPTAGGKAVPVVLARAPDGSLLATFPDGTVRVVVPGAGPEVTVELPLASAGG [r19_199_TrMRF]”, which “folding stability dG unfold” value is on record?
A: Its value is 0.115 ± 0.046 kcal/mol.

Q: Which “folding stability dG unfold” value does the source give for “SANEKVTVEVKIRFYFRFPKGQPFPFDITVPVTVEYDPNDPDKAKEEAKEKAIDEAIDEFRERFGYPLPSAG [r14_117_TrROS]” here?
A: The value was 1.75 ± 0.13 kcal/mol.

Q: Which “folding stability dG unfold” value does the source give for “SAGGSSGSMSPVLSLFEPGTGVVTYLLKKNDKLYLLVSTGSPGVPPVPSSVSPANLAAGDPVWATAGSAGGS [r16_809_JUSTAS]” here?
A: Its value is -0.924 ± 0.26 kcal/mol.

Q: For “SAGGGSDTVPPVPKATITFTLPAESPEEAEAAAEEIARELEEEGGIPATATVTTDPETGTVTVTITLESAGG [r13_517_TrMRF]”, which “folding stability dG unfold” value is on record?
A: Its value is 0.971 ± 0.033 kcal/mol.

Q: With “SAGGSAGGSAGGMPVTLNVTVKTKDPDGVAATETVTLTFSSPEEALAAIKAAYPNSTIESAGGSAGGSAGGS [r10_1248_JUSTAS]” as the sequence, how does the “folding stability dG unfold” value read?
A: Its value is 0.995 ± 0.057 kcal/mol.

Q: With “SAGELKPGQIVVRTIEIDLPEEDEELREAIERGELIELELEDGSRVLMRVERKDGKLRITEVVILPRPESAG [r5_223_TrROS_Hall]” as the sequence, how does the “folding stability dG unfold” value read?
A: Its value is 1.66 ± 0.043 kcal/mol.

Q: For “SAMELEFETDGSVSVEELIEEFKKAFPLVKEIEAEAEPIPYIPKYKVRFKIKLVPVPTPEEIEEFGKKKSAG [r14_645_TrMRF]”, which “folding stability dG unfold” value is on record?
A: The value was 1.02 ± 0.065 kcal/mol.

Q: For “SAGGSAGGSAGGSMPTYRITVEVDGKKYTITVREGMSPEEIAKRLKELYPNLTVKIEPVSAGGSAGGSAGGS [r4_155_TrROS_Hall]”, which “folding stability dG unfold” value is on record?
A: The value was 3.75 ± 0.13 kcal/mol.

Q: Which “folding stability dG unfold” value does the source give for “SAGGMPDITEVELLDVEYDPETGTYRFRVKVKLKDGTEREVEIPFVDEDGDFGIEEILKAAEELVEESAGGS [r16_221_TrMRF]” here?
A: The value was 2.71 ± 0.14 kcal/mol.

Q: With “MKVVFTEEELPDAKVRKVFDPETGTITETVTYPSTSYTVTSTATITSFDPETGKVTITTTVSAPPEAGIPAS [r1_234_JUSTAS]” as the sequence, how does the “folding stability dG unfold” value read?
A: The value was 1.87 ± 0.05 kcal/mol.

Q: With “SPNLKPVEFPIKIPGYKIRRVSIWKSPDGPVEIFVRFPDGWYYEFEIPPNGDIQPMKITEAVPPDEDKKNSA [r9_1075_TrROS]” as the sequence, how does the “folding stability dG unfold” value read?
A: Its value is 1.57 ± 0.086 kcal/mol.

Q: For “SAGGSMKIEKLPDGKTVVIETVDEETNTITRTRFKLDKDGKLVEMEVETITLPAPPPEEVDEDGKESAGGSA [r2_375_TrROS_Hall]”, which “folding stability dG unfold” value is on record?
A: Its value is 1.92 ± 0.098 kcal/mol.

Q: For “SAGGSAGGSDDTAEFEGPVNVTLTLDGKPVNINAWVTRLPPGWFRIVLPDGVIELPGGNLRVGSAGGSAGGS [r12_790_TrMRF]”, which “folding stability dG unfold” value is on record?
A: Its value is 0.84 ± 0.039 kcal/mol.

Q: With “SAGGSAGGSAGRRIVFQFPLGMPIDEIADELADNGYEVEINWEPDPNGWMTFVIEITPPDSAGGSAGGSAGG [r11_1050_TrROS]” as the sequence, how does the “folding stability dG unfold” value read?
A: Its value is 1.45 ± 0.016 kcal/mol.

Q: With “SAGGSAGGSAKAKVIKTEEFELPNGVRIRIEYIEVDGKLIEKVEIEIKAESEEQKKALEKASAGGSAGGSAG [r3_158_TrROS_Hall]” as the sequence, how does the “folding stability dG unfold” value read?
A: Its value is 1.29 ± 0.052 kcal/mol.

Q: For “SAGGSAGGSAMPIKYLFPKDKSLEDILDEIIKKTGKPKSEIKNIKLEEIDDEEGFYVAYVESAGGSAGGSAG [r3_26_TrMRF]”, which “folding stability dG unfold” value is on record?
A: The value was 1.36 ± 0.092 kcal/mol.

Q: With “SAGGEKITAEELVEEIQKIFNENGMKPVAIEPMPDGGVFIHFKNPYMIMIDAEEGKIEIMPPEDMEDFSAGG [r13_717_TrROS]” as the sequence, how does the “folding stability dG unfold” value read?
A: The value was 1.04 ± 0.068 kcal/mol.

Q: For “SMYKLSVYRNGQPVPEEEALERVKRIEEELGREVDPEELARLLAAEPDTVVTVTKYAEPGKPIGTLTYTRSA [r9_1045_JUSTAS]”, which “folding stability dG unfold” value is on record?
A: Its value is 1.32 ± 0.08 kcal/mol.

Q: Which “folding stability dG unfold” value does the source give for “SAGGSAGGSAGGETVVLVTYDKETKTLTVQTFELENGELKTTTKTVTLTDEQLESLPPASAGGSAGGSAGGS [r10_291_TrROS_Hall]” here?
A: Its value is 1.39 ± 0.07 kcal/mol.

Q: With “SAGGSAGGVTINFPDGVTIMVDPGTGKIYIMNPNGYIFKFTIERKPNEWKLKIEPIKPIPPDDFSAGGSAGG [r6_324_TrROS]” as the sequence, how does the “folding stability dG unfold” value read?
A: Its value is 2.55 ± 0.085 kcal/mol.

Q: Which “folding stability dG unfold” value does the source give for “SAGGSAGGSAKPVYKIRIVVKKDGKEFVKEIEVPEDEEEAEALAKELAKKPEVEKVEVEKVSAGGSAGGSAG [r3_310_TrROS_Hall]” here?
A: The value was 0.739 ± 0.075 kcal/mol.

Q: For “SAGGEVKTLEVTLEVNGKKVRVRVELTKDGTLKVTVTFEDGTKVELEIKLPKVKVKEVKFYSLEELKSAGGS [r16_48_TrROS_Hall]”, which “folding stability dG unfold” value is on record?
A: Its value is 2.22 ± 0.071 kcal/mol.

Q: With “SAGGKLTLELEFELEDGLRVRLRVEVDEDGELRVTLEVEPEPPPPPIRVVKNEDGSEYVYRNGKLYKLSAGG [r13_151_TrROS_Hall]” as the sequence, how does the “folding stability dG unfold” value read?
A: The value was 3.55 ± 0.16 kcal/mol.

Q: With “SAGGSAGGSAGMTLIYKDPETGKYYIVDFEESGPERVFEVDSLDEAEEIAEKLGRKLDPLSAGGSAGGSAGG [r11_1049_TrMRF]” as the sequence, how does the “folding stability dG unfold” value read?
A: The value was 1.39 ± 0.029 kcal/mol.

Q: Which “folding stability dG unfold” value does the source give for “SAGGSAGGKKKYRALITLRSKDGKPIAPIEIETDSPEELLKTAKKIIEEATKENEPVEIKVEEYSAGGSAGG [r6_285_TrMRF]” here?
A: The value was 1.09 ± 0.054 kcal/mol.

Experiment: folding stability dG unfold (combined trypsin and chymotrypsin); higher = more stable
Procedure, shortened: as §1

Q: For “SAMVIIRVENKDGKTIEIAIPVRNEDGKLTKEELEELAKRLAEELAEELGLEDVKVEVEVRPLSEEELKSAG [r14_378_TrROS_Hall]”, which “folding stability dG unfold” value is on record?
A: The value was 2.35 ± 0.17 kcal/mol.

Q: For “SAGGSKELKPGDIITFPKSVSEEEIKEKVKELMEKYGIKGIISIEKKSPNSYIVKIEYPDGNPLAISAGGSA [r2_168_JUSTAS]”, which “folding stability dG unfold” value is on record?
A: The value was 1.72 ± 0.15 kcal/mol.

Q: For “SAGGSAGGSAGKPNIKKEANLEIFVTEDELEKALEIVKKLEEEGIEVKEAKIYVLKPEEGSAGGSAGGSAGG [r11_533_TrMRF]”, which “folding stability dG unfold” value is on record?
A: The value was -0.318 ± 0.21 kcal/mol.

Q: With “SAGMLSVEQLLEALKEGKEILIVAESPEERERAKRLLAEELGLSEEEIDALLKKAKIKVLPADDPELKKSAG [r5_368_TrROS_Hall]” as the sequence, how does the “folding stability dG unfold” value read?
A: The value was 2.46 ± 0.2 kcal/mol.

Q: With “SAPPLPPETITLTLTIDGYEITVTLTRLPDGTVKLTVTVTLPDGTTVTITMYFDAKTNKWYITKIEITPPSA [r9_795_TrROS_Hall]” as the sequence, how does the “folding stability dG unfold” value read?
A: Its value is 5.26 ± 0.33 kcal/mol.

Q: For “SAGGSAKVKIYLIKLPPNGNPLEVIKKVKEKGGNAIIVSGPGLHAVIEADEPEEAAKKAKEILEKLSAGGSA [r15_546_TrMRF]”, which “folding stability dG unfold” value is on record?
A: Its value is 0.292 ± 0.097 kcal/mol.

Q: For “SAGPAPGAPWEKVEIVAEAWVPTAGGKAVPVVLARAPDGSLLATFPDGTVRVVVPGAGPEVTVELPLASAGG [r19_199_TrMRF]”, which “folding stability dG unfold” value is on record?
A: The value was 1.62 ± 0.065 kcal/mol.

Q: For “SANEKVTVEVKIRFYFRFPKGQPFPFDITVPVTVEYDPNDPDKAKEEAKEKAIDEAIDEFRERFGYPLPSAG [r14_117_TrROS]”, which “folding stability dG unfold” value is on record?
A: Its value is 2.37 ± 0.19 kcal/mol.

Q: Which “folding stability dG unfold” value does the source give for “SAGGSSGSMSPVLSLFEPGTGVVTYLLKKNDKLYLLVSTGSPGVPPVPSSVSPANLAAGDPVWATAGSAGGS [r16_809_JUSTAS]” here?
A: Its value is 0.353 ± 0.1 kcal/mol.

Q: With “SAGGGSDTVPPVPKATITFTLPAESPEEAEAAAEEIARELEEEGGIPATATVTTDPETGTVTVTITLESAGG [r13_517_TrMRF]” as the sequence, how does the “folding stability dG unfold” value read?
A: The value was 0.855 ± 0.069 kcal/mol.

Q: Which “folding stability dG unfold” value does the source give for “SAGGSAGGSAGGMPVTLNVTVKTKDPDGVAATETVTLTFSSPEEALAAIKAAYPNSTIESAGGSAGGSAGGS [r10_1248_JUSTAS]” here?
A: The value was 1.15 ± 0.12 kcal/mol.

Q: With “SAGELKPGQIVVRTIEIDLPEEDEELREAIERGELIELELEDGSRVLMRVERKDGKLRITEVVILPRPESAG [r5_223_TrROS_Hall]” as the sequence, how does the “folding stability dG unfold” value read?
A: The value was 2.73 ± 0.062 kcal/mol.

Q: For “SAMELEFETDGSVSVEELIEEFKKAFPLVKEIEAEAEPIPYIPKYKVRFKIKLVPVPTPEEIEEFGKKKSAG [r14_645_TrMRF]”, which “folding stability dG unfold” value is on record?
A: The value was 1.2 ± 0.17 kcal/mol.

Q: Which “folding stability dG unfold” value does the source give for “SAGGSAGGSAGGSMPTYRITVEVDGKKYTITVREGMSPEEIAKRLKELYPNLTVKIEPVSAGGSAGGSAGGS [r4_155_TrROS_Hall]” here?
A: The value was 4.04 ± 0.13 kcal/mol.

Q: With “SAGGMPDITEVELLDVEYDPETGTYRFRVKVKLKDGTEREVEIPFVDEDGDFGIEEILKAAEELVEESAGGS [r16_221_TrMRF]” as the sequence, how does the “folding stability dG unfold” value read?
A: The value was 3.66 ± 0.18 kcal/mol.
